# Measurements from patent publication US20210023094A1 (PSMA DEVELOPMENT, published 2021).
# B1: PSMA ADC (AB-PG1-XG1-006 conjugated to maleimidocaproyl-valine-citrulline-p-aminobenzylcarbamate-monomethyl auristatin E), Example 1 (antibody, V domains shown)
# VH: QVQLVESGGGVVQPGRSLRLSCAASGFAFSRYGMHWVRQAPGKGLEWVAVIWYDGSNKYYADSVKGRFTISRDNSKNTQYLQMNSLRAEDTAVYYCARGGDFLYYYYYGMDVWGQGTTVTVSS
# VL: DIQMTQSPSSLSASVGDRVTITCRASQGISNYLAWYQQKTGKVPKFLIYEASTLQSGVPSRFSGGGSGTDFTLTISSLQPEDVATYYCQNYNSAPFTFGPGTKVDIK
# modifications: vcMMAE on cysteine thiols of reduced disulfides; 3.0-3.5 drugs per mAb in total
# B2: PSMA mAb mcMMAF (conjugate 699028C), Example 2 (antibody, V domains shown)
# VH: B1 VH
# VL: B1 VL
# modifications: mcMMAF via thioether on interchain cysteine thiols; 4.4 drugs per mAb in total
# B3: PSMA mAb vcMMAF (conjugate 699028B), Example 2 (antibody, V domains shown)
# VH: B1 VH
# VL: B1 VL
# modifications: vcMMAF via thioether on interchain cysteine thiols; 4.4 drugs per mAb in total
# B4: PSMA mAb vcMMAE (conjugate 699028A), Example 2 (antibody, V domains shown)
# VH: B1 VH
# VL: B1 VL
# modifications: vcMMAE via thioether on interchain cysteine thiols; 4.3 drugs per mAb in total
# Key:
# [1] = target: T1, prostate-specific membrane antigen (PSMA), on cells (3T3-PSMA, C4-2, LNCaP) (Homo sapiens (Human), UniProt Q04609 1-750); experiment: cell-based or functional assay
# [2] = target: T1, prostate-specific membrane antigen …; experiment: cell-based or functional assay; remark: listed apart in the source
# T1 sequence (Q04609 whole entry): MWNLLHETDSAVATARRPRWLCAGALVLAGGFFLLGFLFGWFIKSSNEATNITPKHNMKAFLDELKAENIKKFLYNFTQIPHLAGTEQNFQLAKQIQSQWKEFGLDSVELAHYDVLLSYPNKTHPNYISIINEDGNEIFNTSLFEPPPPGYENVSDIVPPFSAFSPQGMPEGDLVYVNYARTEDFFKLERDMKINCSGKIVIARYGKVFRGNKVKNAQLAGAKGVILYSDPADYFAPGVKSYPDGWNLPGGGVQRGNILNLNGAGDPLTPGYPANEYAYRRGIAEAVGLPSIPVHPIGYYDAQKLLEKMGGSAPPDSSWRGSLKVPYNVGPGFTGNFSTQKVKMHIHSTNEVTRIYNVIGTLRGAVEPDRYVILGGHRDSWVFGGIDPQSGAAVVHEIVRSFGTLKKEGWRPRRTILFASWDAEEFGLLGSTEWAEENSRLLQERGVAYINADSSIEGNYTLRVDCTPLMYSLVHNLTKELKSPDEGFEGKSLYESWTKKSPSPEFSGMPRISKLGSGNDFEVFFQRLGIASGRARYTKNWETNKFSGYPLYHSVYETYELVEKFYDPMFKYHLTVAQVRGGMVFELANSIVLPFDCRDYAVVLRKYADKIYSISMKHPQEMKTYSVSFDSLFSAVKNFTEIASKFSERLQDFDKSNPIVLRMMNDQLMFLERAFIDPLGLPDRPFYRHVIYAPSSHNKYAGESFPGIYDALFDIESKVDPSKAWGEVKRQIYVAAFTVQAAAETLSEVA
Binder,"in vitro cytotoxicity IC50 on 3T3-PSMA cells (Alamar Blue, 4 days) [1] [nM]","in vitro cytotoxicity IC50 on C4-2 cells (Alamar Blue, 4 days) [1] [nM]","in vitro cytotoxicity IC50 on LNCaP cells (Alamar Blue, 4 days) [1] [nM]","in vitro potency IC50 on C4-2 cells (Alamar Blue, 4 days) [2] [nM]"
B1,0.208,0.065,0.083,
B2,,,,0.042
B3,,,,0.011
B4,,,,0.06
